Data as given in patent US20230144876A1 (UNIVERSITY OF KITAKYUSHU, published 2023).

Biological target: T1, MHC-1 (MHC class I molecules) on murine dendritic cell line DC2.4 cells (mouse, UniProt P01887 21-119; P01901 22-369)
T1 construct: whole, on cells; also called H-2Kb
T1 sequence (MHC heavy, looked up): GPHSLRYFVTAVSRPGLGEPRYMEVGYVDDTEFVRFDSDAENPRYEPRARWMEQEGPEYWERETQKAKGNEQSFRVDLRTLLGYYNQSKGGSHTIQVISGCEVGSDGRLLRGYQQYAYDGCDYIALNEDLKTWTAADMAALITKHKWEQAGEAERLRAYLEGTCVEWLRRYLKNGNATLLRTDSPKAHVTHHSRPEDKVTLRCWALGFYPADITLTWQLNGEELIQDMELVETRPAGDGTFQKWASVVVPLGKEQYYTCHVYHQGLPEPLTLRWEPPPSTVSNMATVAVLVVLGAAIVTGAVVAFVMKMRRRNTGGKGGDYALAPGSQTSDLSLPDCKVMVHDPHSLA
T1 sequence (b2m, looked up): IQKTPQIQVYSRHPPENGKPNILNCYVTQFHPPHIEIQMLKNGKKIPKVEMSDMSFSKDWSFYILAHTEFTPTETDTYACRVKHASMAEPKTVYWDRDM
Experiment: competitive inhibition of OVA peptide 1 binding to MHC-1 on DC2.4 cells, flow cytometry
Procedure: Murine dendritic cell line, DC2.4 cells, were detached from a dish, and suspended in 1.5 mL tubes at a concentration of 1.5×10⁵ cells per […] of PBS.

binding result: no binding (tested: 2.5 µg/mL)
B1: C-TRP2-9 (cysteine added to the N-terminus of residues 180 to 188 of mTRP2) (peptide)
peptide: CSVYDFFVWL
notes: 10-mer; N-terminal Cys plus mTRP2 180-188; Free peptide in the assay
